IntAct's records for PubMed 19050261

B1: Complement factor H (Homo sapiens), P08603 (parent)
chain: MRLLAKIICLMLWAICVAEDCNELPPRRNTEILTGSWSDQTYPEGTQAIYKCRPGYRSLGNVIMVCRKGEWVALNPLRKCQKRPCGHPGDTPFGTFTLTGGNVFEYGVKAVYTCNEGYQLLGEINYRECDTDGWTNDIPICEVVKCLPVTAPENGKIVSSAMEPDREYHFGQAVRFVCNSGYKIEGDEEMHCSDDGFWSKEKPKCVEISCKSPDVINGSPISQKIIYKENERFQYKCNMGYEYSERGDAVCTESGWRPLPSCEEKSCDNPYIPNGDYSPLRIKHRTGDEITYQCRNGFYPATRGNTAKCTSTGWIPAPRCTLKPCDYPDIKHGGLYHENMRRPYFPVAVGKYYSYYCDEHFETPSGSYWDHIHCTQDGWSPAVPCLRKCYFPYLENGYNQNYGRKFVQGKSIDVACHPGYALPKAQTTVTCMENGWSPTPRCIRVKTCSKSSIDIENGFISESQYTYALKEKAKYQCKLGYVTADGETSGSITCGKDGWSAQPTCIKSCDIPVFMNARTKNDFTWFKLNDTLDYECHDGYESNTGSTTGSIVCGYNGWSDLPICYERECELPKIDVHLVPDRKKDQYKVGEVLKFSCKPGFTIVGPNSVQCYHFGLSPDLPICKEQVQSCGPPPELLNGNVKEKTKEEYGHSEVVEYYCNPRFLMKGPNKIQCVDGEWTTLPVCIVEESTCGDIPELEHGWAQLSSPPYYYGDSVEFNCSESFTMIGHRSITCIHGVWTQLPQCVAIDKLKKCKSSNLIILEEHLKNKKEFDHNSNIRYRCRGKEGWIHTVCINGRWDPEVNCSMAQIQLCPPPPQIPNSHNMTTTLNYRDGEKVSVLCQENYLIQEGEEITCKDGRWQSIPLCVEKIPCSQPPQIEHGTINSSRSSQESYAHGTKLSYTCEGGFRISEENETTCYMGKWSSPPQCEGLPCKSPPEISHGVVAHMSDSYQYGEEVTYKCFEGFGIDGPAIAKCLGEKWSHPPSCIKTDCLSLPSFENAIPMGEKKDVYKAGEQVTYTCATYYKMDGASNVTCINSRWTGRPTCRDTSCVNPPTVQNAYIVSRQMSKYPSGERVRYQCRSPYEMFGDEEVMCLNGNWTEPPQCKDSTGKCGPPPPIDNGDITSFPLSVYAPASSVEYQCQNLYQLEGNKRITCRNGQWSEPPKCLHPCVISREIMENYNIALRWTAKQKLYSRTGESVEFVCKRGYRLSSRSHTLRTTCWDGKLEYPTCAKR

Variants of: B1
Conditions: with ptx3_human PTX3, P26022
Chain of ptx3_human PTX3, P26022 (P26022 whole entry): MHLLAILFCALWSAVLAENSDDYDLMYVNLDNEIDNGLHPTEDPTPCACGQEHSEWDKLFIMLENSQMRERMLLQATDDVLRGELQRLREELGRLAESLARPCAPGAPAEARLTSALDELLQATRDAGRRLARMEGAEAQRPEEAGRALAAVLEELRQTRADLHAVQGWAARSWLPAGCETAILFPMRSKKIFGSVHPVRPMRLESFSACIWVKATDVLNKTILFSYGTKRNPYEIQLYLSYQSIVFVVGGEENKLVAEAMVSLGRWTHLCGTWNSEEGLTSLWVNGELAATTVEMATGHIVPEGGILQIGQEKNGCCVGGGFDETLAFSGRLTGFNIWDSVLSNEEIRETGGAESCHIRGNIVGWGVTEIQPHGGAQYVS

| Variant | effect of a mutation on the interaction |
| --- | --- |
| Y402H | with no effect |
